Results from patent publication US20220403048A1, “BINDING MOLECULES TO ARGINASE II [ARG2]” (Cancer Research Technology Limited, priority 2019, published 2022).

Columns and labels:
[1] = biological target: T1, biotinylated recombinant human trimeric ARG2 enzyme (Homo sapiens, UniProt P78540, E275H/R327K); assay: C0020187 IgG epitope competition HTRF assay; assay type: binding; settings: clones in scFv format, FIG. 8; read-out: 18° IgG epitope competition assay IC50
T1 construct: His10 (after a GGG linker) (C); made in house; host or cells: E. coli BL21 (DE3)
T1 sequence (P78540 with tags, fused parts or gaps E275H/R327K): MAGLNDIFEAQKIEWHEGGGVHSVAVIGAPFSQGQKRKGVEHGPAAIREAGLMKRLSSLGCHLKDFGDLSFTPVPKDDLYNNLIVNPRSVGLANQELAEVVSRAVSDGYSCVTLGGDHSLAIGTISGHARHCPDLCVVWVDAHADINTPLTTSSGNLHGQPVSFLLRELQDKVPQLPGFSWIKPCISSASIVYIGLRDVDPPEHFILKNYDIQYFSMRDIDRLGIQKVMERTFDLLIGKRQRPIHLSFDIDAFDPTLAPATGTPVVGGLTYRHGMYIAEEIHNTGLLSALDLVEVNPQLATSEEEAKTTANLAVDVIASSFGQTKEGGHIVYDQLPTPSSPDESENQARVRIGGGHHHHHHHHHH
Text: Two thousand and twenty four scFv chosen at random from selection rounds 3 and 4 of the targeted mutagenesis approach described in section 2.2, 2.3 and 2.4 were expressed in E. coli to produce unpurified periplasmic scFv. Those scFv capable of competing with C0020187 IgG for binding to recombinant human trimeric ARG2 enzyme (i.e., those scFv that bind at or near the epitope bound by C0020187 IgG) were elucidated in a competition format assay, using the HTRF™ platform. […]
A ‘Maximum’ binding signal was determined by analysing the binding of C0020187 IgG to biotinylated recombinant human trimeric ARG2 enzyme in the absence of competitor scFv. […] Finally, a ‘Background’ signal was determined by analysing the fluorescence generated in the absence of C0020187 IgG.
Unpurified periplasmic scFv were supplied in sample buffer consisting of 200 mM tris base, pH 7.4, 0.5 mM EDTA, and 0.5 M sucrose. […] Assay plates were sealed and then incubated overnight at room temperature in the dark, prior to measuring time-resolved fluorescence at 620 and 665 nm emission wavelengths on a fluorescence plate reader.
Data were analysed by calculating % Delta F values for each sample. % Delta F was determined according to equation 1. […]
Data were again analysed by calculating the % Delta F and % Control binding values for each sample. […]

[2] = biological target: T2, trimeric human ARG2 (Homo sapiens, UniProt P78540); assay: Human trimeric ARG2 enzyme inhibition assay (urea production); assay type: biochemical; settings: clones in scFv format, FIG. 9; read-out: Trimeric human ARG2 EIA IC50
T2 construct: human ARG2 (aa23-354); His10 (C); made in house; host or cells: E. coli BL21 (DE3)
T2 sequence (P78540 23-354): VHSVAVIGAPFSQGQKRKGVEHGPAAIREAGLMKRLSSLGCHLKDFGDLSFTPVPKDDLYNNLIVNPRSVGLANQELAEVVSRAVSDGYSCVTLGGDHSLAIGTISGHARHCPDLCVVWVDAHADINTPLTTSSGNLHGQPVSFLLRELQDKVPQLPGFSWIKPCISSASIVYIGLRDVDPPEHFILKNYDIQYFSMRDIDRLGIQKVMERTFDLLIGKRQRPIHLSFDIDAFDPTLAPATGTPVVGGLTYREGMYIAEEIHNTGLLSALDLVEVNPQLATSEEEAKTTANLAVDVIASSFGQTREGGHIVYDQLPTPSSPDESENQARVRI
Procedure: Unpurified anti-ARG2 scFv fragments from periplasmic preparations were screened in an ARG2 enzyme inhibition assay using a Pherastar plate reader (BMG Labtech, Germany). In this assay, the ability of unpurified scFv to inhibit the enzymatic activity of trimeric ARG2 was determined by measuring the production of urea, the product of L-arginine turnover by ARG2.
Selection outputs were screened as unpurified bacterial periplasmic extracts containing scFv, prepared in 200 mM TES buffer pH 7.4, 0.5 mM EDTA and 0.5 M sucrose. 10 μl of unpurified scFv were added to a Greiner Bio-One® 384 well assay plate (Greiner Bio-one, UK; cat: 781901). This was followed by the addition of 5 μl of 1.6 μg/ml trimeric human ARG2 that had been diluted in 40 mM MnCl2, 100 mM tris-HCl, pH7.4 (4× enzyme buffer). […]
Urea was detected by the simultaneous addition of equal volumes of O-Phthaldialdehyde (1.5 mM O-Phthaldialdehyde, 7% H2SO4, 0.03% Brij L23) and N-(1-Napthyl)ethylenediamine (1.66 mM N-(1-Napthyl)ethylenediamine, 81 mM Boric acid, 21% H2SO4, 0.03% Brij L23) followed by an 18 minute incubation at room temperature before the colorimetric product was quantified on the Pherastar by measuring absorbance at 505 nm. […]
Data were analysed by calculating % maximum (max) control for each sample using the 505 nm absorbance data. % max control was determined according to equation 2. […]
IC50 values were determined by testing a dilution series of the purified scFv, prepared in TBS, in the ARG2 enzyme inhibition assay described in section 1.5, substituting the unpurified scFv periplasmic preparation with the purified scFv.
Background control wells were defined for each plate by the omission of substrate. […] Data were analysed by calculating % maximum (max) control for each sample. % max control was determined according to equation 1 detailed in section 1.5. […]
Data were again analysed by calculating % Max control values for each sample. […]

B1: C0021142: anti-ARG2 antibody, VH SEQ ID NO: 232, VL SEQ ID NO: 237 (antibody, listed as Homo sapiens, V domains shown)
VH: EVQLLESGGGLVQPGGSLRLSCAASGFTFSSYAMSWVRQAPGKGLEWVSAHTHSPGSTYYADSVKGRFTISRDNSKNTLYLQMNSLRAEDTAVYYCARLRADLGLYMDLWGRGTLVTVSS
VL: QSVLTQPPSVSAAPGQKVTISCSGSSSNIGNHYVSWYQQLPGTAPKLLIYDNSERPSGVPDRFSGSKSGTSATLGITGLQTGDEADYYCGTWDSSLSALVFGGGTKLTVL
modifications: C0021142
[1]
  IC50: 57.8 nM
[2]
  IC50: 97.6 nM
